One data set has as its target T1, human HER2-Fc (Homo sapiens, UniProt P04626).
T1 construct: Fc; purchased R&D Systems 1129-ER-050
Nature of the data set: Biacore 2000 comparative kinetic analysis, HER2. In kind it is binding. The conditions noted are these: for KDInv/KDOrig: original set to 1.0; for KD(2w)/KD(0): KD after stability test relative to KD before. On the procedure:
(§1) A set of polypeptides showing improved stability properties in Example 12 were further assessed in terms of preserved binding capacities to their targets after introduction of alterations in the scaffold, as well as after having been subjected to the stability test, i.e. incubated at 37° C. for 2 weeks. Comparative kinetic constants (kon and koff) and affinities (KD) were determined using a Biacore 2000 instrument. The target proteins human HER2-Fc (R&D Systems, cat. no. 1129-ER-050), human PDGF-Rβ (R&D Systems, cat. no. 385-PR-100/CF), human FcRn (Biorbyt, cat. no. orb 84388) and human CAIX (R&D Systems, cat. no. 2188-CA), respectively, were immobilized on the carboxylated dextran layer surface of CM5 chips (GE Healthcare). The immobilization was performed using amine coupling chemistry according to the manufacturer's protocol and using HBS-EP as running buffer. One flow cell surface on the chip was activated and deactivated for use as blank during analyte injections. The immobilization level of target protein on the respective surface was approximately 850 RU for HER2, 2200 RU for PDGF-Rβ, 750 for FcRn and 580 RU for CAIX.
(§2) HBS-EP (HER2, PDGF-Rβ, CAIX) or a pH 6.0 Na2HPO4/citric acid buffer (126 mM Na2HPO4, 37 mM citric acid) (FcRn) was used as running buffer and the flow rate was 30 μl/min in the binding experiments performed at 25° C. as further described below.
The Z variants Z02891 (SEQ ID NO:27), Z17341 (SEQ ID NO:28), and Z17342 (SEQ ID NO:29) targeting HER2 were diluted in running buffer to final concentrations of 3.33, 10, 30 and 90 nM and injected for 5 minutes, followed by 30 minutes of dissociation in running buffer. Regeneration by four pulses alternating between 10 mM HCl and 10 mM NaOH followed by 5 min equilibration in running buffer was applied after each analyte injection.
(§3) Kinetic constants were calculated from the sensorgrams using the Langmuir 1:1 model (HER2, FcRn, CAIX) or the 1:1 binding with mass transfer model (PDGF-Rβ) of the BiaEvaluation software 4.1 (GE Healthcare). Curves of the blank surface were subtracted from the curves of the ligand surfaces and the data from the buffer cycles were subtracted from the data of the test-sample cycles to correct for any drift in signal.

Data set [1] in a line: Circular dichroism, variable temperature measurement (Tm) and spectra before and after heating. The conditions noted are these: His6-tagged, 0.5 mg/ml in PBS, CD at 221 nm, 20 to 90° C. In kind it is physicochemical. On the procedure:
Circular dichroism (CD) analysis was carried out to determine the melting temperatures (Tm) and assess potential changes in the secondary structure of the inventive polypeptides as a result of the amino acid substitutions.
Purified His6-tagged Z variants were diluted to 0.5 mg/ml in PBS. For each diluted Z variant, a CD spectrum at 250-195 nm was recorded at 20° C. A variable temperature measurement (VTM) was performed to determine the Tm. In the VTM, the absorbance was measured at 221 nm while the temperature was raised from 20 to 90° C., with a temperature slope of 5° C./min. After the VTM, a second CD spectrum at 250-195 nm was recorded at 20° C. The CD measurements were performed on a Jasco J-810 spectropolarimeter (Jasco Scandinavia AB) using a cell with an optical path-length of 1 mm.
For orientation: CD spectra are sensitive to the conformation of chiral molecules.

In the next data set the target is T2, human FcRn (Homo sapiens, UniProt P55899).
T2 construct: purchased Biorbyt orb 84388
The experiment in a line: Biacore 2000 comparative kinetic analysis, FcRn. Type of data set: binding. The conditions noted are these: for KDInv/KDOrig: original set to 1.0. On the procedure:
Comparative kinetic constants (kon and koff) and affinities (KD) were determined using a Biacore 2000 instrument. The target proteins human HER2-Fc (R&D Systems, cat. no. 1129-ER-050), human PDGF-Rβ (R&D Systems, cat. no. 385-PR-100/CF), human FcRn (Biorbyt, cat. no. orb 84388) and human CAIX (R&D Systems, cat. no. 2188-CA), respectively, were immobilized on the carboxylated dextran layer surface of CM5 chips (GE Healthcare). The immobilization was performed using amine coupling chemistry according to the manufacturer's protocol and using HBS-EP as running buffer. One flow cell surface on the chip was activated and deactivated for use as blank during analyte injections.
as §2
Regeneration by three pulses of HBS-EP followed by 10 min equilibration in running buffer was applied after each analyte injection.
as §3
(SPR reads the build-up and loss of mass on a sensor chip optically.)

A further data set deals with T3, human PDGF-Rβ (Homo sapiens, UniProt P09619).
T3 construct: purchased R&D Systems 385-PR-100/CF
Nature of the data set: Biacore 2000 comparative kinetic analysis, PDGF-Rβ. Type of data set: binding. The conditions noted are these: for KDInv/KDOrig: original set to 1.0. On the procedure: as §1, §2
The Z variants Z15805 (SEQ ID NO:30), Z17343 (SEQ ID NO:31), and Z17344 (SEQ ID NO:32) targeting PDGF-R13 were diluted in running buffer to final concentrations of 6.67, 20, 60 and 180 nM and injected for 5 minutes, followed by 20 minutes of dissociation in running buffer. Regeneration by three pulses of 10 mM NaOH followed by 5 min equilibration in running buffer was applied after each analyte injection.
as §3

The target of data set [2] is human FcRn (Biorbyt, cat. no. orb 84388) (human) (UniProt P55899). The experiment in a line: SPR Biacore 2000, FcRn on CM5 chip, pH 6.0, 1:1 Langmuir; sample (2w) after 2 weeks at 37 C.
Data set [3] has the same target. The experiment in a line: SPR Biacore 2000, FcRn on CM5 chip, pH 6.0, 1:1 Langmuir; sample (0) before stability test; reference Z10103 (0).
For data set [4] the target is unchanged. The experiment in a line: SPR Biacore 2000, FcRn on CM5 chip, pH 6.0, 1:1 Langmuir; sample (2w) after 2 weeks at 37 C; reference Z10103 (2w).
The target is the same in data set [5]. Nature of the data set: SPR Biacore 2000, FcRn on CM5 chip, pH 6.0, 1:1 Langmuir; sample (0) before stability test.
For data set [6] the target is unchanged. Nature of the data set: SPR Biacore 2000, FcRn on CM5 chip, pH 6.0, 1:1 Langmuir; KD after 2 weeks at 37 C against KD before.
Data set [7] in a line: Accelerated stability study of C5 binding polypeptides, 2 weeks at 37° C., SDS-PAGE and Reversed Phase HPLC (RPC). In kind it is physicochemical.
Experimental: The stability was measured by the appearance of new variants after the stability testing by SDS-PAGE and Reversed Phase HPLC (RPC). In both analyses, the initial sample and the one subjected to the stability study were run in parallel. For the SDS-PAGE, 7.5 μg protein was loaded into each well.
The purified proteins were formulated in 25 mM NaP/125 mM NaCl pH 7.0 and subjected to an accelerated stability study for 2 weeks at 37° C. The stability was measured by the appearance of new variants after the stability testing by SDS-PAGE and Reversed Phase HPLC (RPC). In both analyses, the initial sample and the one subjected to the stability study were run in parallel. For the SDS-PAGE, 7.5 μg protein was loaded into each well.
The nature of data set [8]: Three month stability test at 37° C., RPC main peak.
Experimental: (Example 2) were subjected to a longer 3 month stability test at 37° C. The setup of the stability test and the analysis by RPC was as described in Example 2. The evaluation of the stability was made by measuring the main peak of the chromatogram and calculating the corresponding percentage of the total protein content.
The mark [9] stands for this setting: (0) prior to stability test, comparative, not absolute.
[10] abbreviates: (2w) after 2 weeks at 37° C., comparative, not absolute.
Setting [11] is: compared with original Z variant.
Where [12] appears, read: (0) prior to stability test, pH 6.0.
[13] abbreviates: (2w) after 2 weeks at 37° C., pH 6.0.
Where [14] appears, read: KD after stability test relative to KD before.

The values that follow come from patent publication USRE49495E1, “Binding polypeptides having a mutated scaffold” (Affibody AB, priority 2013, dated 2023).

T2 sequence (P55899 24-297 limits assumed): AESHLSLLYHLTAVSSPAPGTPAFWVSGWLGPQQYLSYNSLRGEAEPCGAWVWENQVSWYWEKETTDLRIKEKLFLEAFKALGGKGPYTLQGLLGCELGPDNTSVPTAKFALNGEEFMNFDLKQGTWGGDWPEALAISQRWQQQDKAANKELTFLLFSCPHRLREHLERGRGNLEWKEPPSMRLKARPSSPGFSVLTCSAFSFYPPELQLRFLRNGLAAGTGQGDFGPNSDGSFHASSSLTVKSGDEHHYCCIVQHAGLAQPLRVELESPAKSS
T2 sequence (P61769 21-119 partner): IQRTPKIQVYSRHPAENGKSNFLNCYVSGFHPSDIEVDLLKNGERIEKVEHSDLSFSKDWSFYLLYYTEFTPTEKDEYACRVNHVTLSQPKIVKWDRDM
T3 sequence (P09619 with tags, fused parts or gaps limits assumed): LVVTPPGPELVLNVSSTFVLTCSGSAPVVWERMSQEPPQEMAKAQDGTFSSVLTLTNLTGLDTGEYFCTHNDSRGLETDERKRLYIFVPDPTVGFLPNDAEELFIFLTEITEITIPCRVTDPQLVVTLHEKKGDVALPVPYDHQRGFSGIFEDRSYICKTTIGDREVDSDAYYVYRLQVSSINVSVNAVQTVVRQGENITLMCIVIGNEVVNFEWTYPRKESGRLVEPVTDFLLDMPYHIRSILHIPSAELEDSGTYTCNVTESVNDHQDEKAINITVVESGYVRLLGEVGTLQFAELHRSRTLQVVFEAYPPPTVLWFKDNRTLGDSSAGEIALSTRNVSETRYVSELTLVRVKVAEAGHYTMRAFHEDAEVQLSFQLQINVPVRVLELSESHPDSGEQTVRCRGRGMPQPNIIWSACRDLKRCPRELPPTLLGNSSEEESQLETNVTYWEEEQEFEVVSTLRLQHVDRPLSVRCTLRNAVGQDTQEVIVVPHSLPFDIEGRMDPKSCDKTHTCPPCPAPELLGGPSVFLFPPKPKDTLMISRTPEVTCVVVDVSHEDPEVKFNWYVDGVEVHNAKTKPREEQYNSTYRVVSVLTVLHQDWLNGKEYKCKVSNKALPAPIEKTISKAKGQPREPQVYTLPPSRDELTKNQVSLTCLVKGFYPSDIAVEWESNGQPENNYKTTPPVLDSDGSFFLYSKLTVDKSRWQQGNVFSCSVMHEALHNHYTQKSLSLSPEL

As to “Z02891: original Z variant polypeptide targeting HER2, His6-tagged [reference compound]”, the figures for the “ka” value with human HER2-Fc ((0) prior to stability test) and with human HER2-Fc ((2w) after 2 weeks at 37° C.) were 1.33e+06 M/s and 1.15e+06 M/s, respectively. In addition, the “kd” value with human HER2-Fc ((0) prior to stability test) came out at 7.1e-05 s⁻¹; in the data set with human HER2-Fc ((2w) after 2 weeks at 37° C.), 7.19e-05 s⁻¹. The Kd was determined as 0.054 nM with human HER2-Fc (setting [9]) and 0.062 nM in the data set with human HER2-Fc (setting [10]). For the same molecule, the KDInv/KDOrig with human HER2-Fc ((0) prior to stability test) and with human HER2-Fc ((2w) after 2 weeks at 37° C.) was 1.0 in each case. Moreover, the “KD(2w)/KD(0)” value with human HER2-Fc was 1.17. Further, the “Tm (° C.)” value in data set [1] came out at 70 °C.
For “Z17342: inventive HER2 binding Z variant; D36R, D37Q, S39E, N52S, D53E (AEAKYAKEMRNAYWEIALLPNLTNQQKRAFIRKLYRQPEQSSELLSEAKKLSESQAPK; Engineered HER2 binding Z variant)”, the “ka” value with human HER2-Fc ((0) prior to stability test) was found to be 894000 M/s; with human HER2-Fc ((2w) after 2 weeks at 37° C.) it was 649000 M/s. The “kd” value in the data set with human HER2-Fc ((0) prior to stability test) turned out to be 0.00157 s⁻¹; with human HER2-Fc ((2w) after 2 weeks at 37° C.), 0.0015 s⁻¹. Also, the Kd with human HER2-Fc (setting [9]) was 1.8 nM; with human HER2-Fc (setting [10]), 2.3 nM; with human HER2-Fc (range of magnitude), about 1 nM. The KDInv/KDOrig with human HER2-Fc ((0) prior to stability test) is 33; with human HER2-Fc ((2w) after 2 weeks at 37° C.), 37. Also, the “KD(2w)/KD(0)” value with human HER2-Fc is 1.31. For the same molecule, the “effect of scaffold substitutions on the affinity” value (shortened to “effect of scaffold substitutions”) with human HER2-Fc (setting [11]) was “more negative effect on the affinity”. In addition, in data set [1], the “Tm (° C.)” value worked out at 62 °C.
On to “Z17348: inventive FcRn binding Z variant; D36R, D37Q, S39E, N52S, D53E (AEAKYAKEQDAAAHEIRWLPNLTFDQRVAFIHKLARQPEQSSELLSEAKKLSESQAPK; Engineered FcRn binding Z variant)”, for which the KDInv/KDOrig with human FcRn ((0) prior to stability test) is 1.93; in the data set with human FcRn ((2w) after 2 weeks at 37° C.), 3.46. Further, the “ka” value turned out to be 1.82e+06 M/s with human FcRn (setting [12]) and 1.28e+06 M/s with human FcRn (setting [13]). The “kd” value with human FcRn (setting [12]) amounted to 0.01 s⁻¹; with human FcRn (setting [13]), 0.00809 s⁻¹. The Kd in the data set with human FcRn ((0) prior to stability test, pH 6.0, comparative, not absolute) was 5.5 nM; with human FcRn ((2w) after 2 weeks at 37° C., pH 6.0, comparative, not absolute), 6.3 nM; with human FcRn (range of magnitude), about 1 nM. In the data set with human FcRn (setting [14]), the “KD(2w)/KD(0)” value stood at 1.14. Further, in the data set with human FcRn (setting [11]), the “effect of scaffold substitutions” value was “more negative effect on the affinity”. In addition, the “Tm (° C.)” value in data set [1] came out at 44 °C.
Consider “Z17344: inventive PDGF-Rβ binding Z variant; D36R, D37Q, S39E, N52S, D53E (AEAKYAKELIEAAAEIDALPNLTRRQWNAFIKKLVRQPEQSSELLSEAKKLSESQAPK; Engineered PDGFRbeta binding Z variant)”, for which the “ka” value with human PDGF-Rβ ((0) prior to stability test) was 5.15e+07 M/s; with human PDGF-Rβ ((2w) after 2 weeks at 37° C.) it was 5.62e+07 M/s. In addition, the “kd” value turned out to be 0.0616 s⁻¹ in the data set with human PDGF-Rβ ((0) prior to stability test) and 0.0623 s⁻¹ with human PDGF-Rβ ((2w) after 2 weeks at 37° C.). Further, the values for the dissociation constant Kd in the data set with human PDGF-Rβ (setting [9]), in the data set with human PDGF-Rβ (setting [10]) and in the data set with human PDGF-Rβ (range of magnitude) were 1.2 nM, 1.1 nM and about 1 nM, respectively. The values for the KDInv/KDOrig in the data set with human PDGF-Rβ ((0) prior to stability test) and with human PDGF-Rβ ((2w) after 2 weeks at 37° C.) were 6.19 and 3.88, respectively. Moreover, in the data set with human PDGF-Rβ (setting [14]), the “KD(2w)/KD(0)” value came out at 0.93. Further, the “effect of scaffold substitutions” value with human PDGF-Rβ (setting [11]) is “more negative effect on the affinity”. The “Tm (° C.)” value in data set [1] worked out at 42 °C.

B1: Z17348 (designed binder)
chain: MGSSHHHHHHLQAEAKYAKEQDAAAHEIRWLPNLTFDQRVAFIHKLARQPEQSSELLSEAKKLSESQAPK
In [2], B1 gave a Kd of 6.3 nM, a koff of 0.00809 s⁻¹ and an on-rate constant (kon) of 1.28e+06 M⁻¹ s⁻¹. This molecule returned a KDInv/KDOrig in data set [3] of 1.93. In data set [4], the KDInv/KDOrig came to 3.46. In [5], this molecule yielded a dissociation constant (Kd) of 5.5 nM, a koff of 0.01 s⁻¹ and a kon of 1.82e+06 M⁻¹ s⁻¹. Moreover, in [6], the KD(2w)/KD(0) amounted to 1.14.

B2: PSI0383: C5 binding polypeptide fused to albumin binding domain; ND to SE in positions 52-53 (protein)
chain: AEAKYAKEVLEAWDEIDRLPNLTIEQWLAFINKLDRQPEQSSELLSEAKKLSESQAPKVEGSLAEAKEAANAELDSYGVSDFYKRLIDKAKTVEGVEALKDAILAALP
modifications: Engineered C5 binding Z variant
Turning to B2, the “Main peak (% of total protein)” value in [7] (RPC, after 2 weeks at 37° C., 25 mM NaP/125 mM NaCl pH 7.0) is recorded as 91%. Also, in [7] (RPC, data from Example 2 repeated in Table 8), the “2 weeks, 37° C. Main peak (% of total protein)” value turned out to be 91%. Also, the “stability when compared with PSI0242” value in data set [7] (conclusion from Table 1, 2 weeks at 37° C.) was “increased stability”. For the same molecule, the “stability after 3 months at 37° C. compared with PSI0242 after 2 weeks” value in data set [8] is reported as “higher proportion of protein in the original form”. In addition, in [8] (RPC), the “3 months, 37° C. Main peak (% of total protein)” value was 59%.

For orientation: Kd means the equilibrium constant for the complex coming apart. Lower therefore signals tighter binding. A word on the koff: it is a measure of how fast the partners let go of each other. As a reminder, the kon is the second-order rate constant of association.
